Key:
human FcγRIIa(H) = biological target: T1, human FcγRIIa(H) (human, UniProt P12318 36-217); assay: SPR (Biacore T100), antibody captured by Protein A, FcγR at 2 µmol/L, 25 C
T1 construct: also called hFcgRIIa(H); FcγRIIa type H
T1 sequence: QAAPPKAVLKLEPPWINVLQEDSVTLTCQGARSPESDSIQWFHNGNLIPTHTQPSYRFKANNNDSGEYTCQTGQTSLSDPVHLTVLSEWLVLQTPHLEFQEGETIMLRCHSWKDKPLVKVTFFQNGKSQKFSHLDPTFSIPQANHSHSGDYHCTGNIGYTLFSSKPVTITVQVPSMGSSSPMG
Method: (§1) Next, interaction between these antibodies and FcγR was analyzed kinetically using the Biacore T100 (GE Healthcare). The interaction was measured at a temperature of 25° C. using HBS-EP+ (GE Healthcare) for the running buffer. The Series S Sensor Chip CM5 (GE Healthcare) was used after immobilizing Protein A by amine coupling. […] Antibody captured on the chip was washed by allowing 10 mM glycine-HCl (pH 1.5) to react following measurement. The chip regenerated in this manner was used repeatedly. The dissociation constant KD (mol/L) was calculated from the association rate constant ka (L/mol/s) and dissociation rate constant kd (1/s) as calculated by global-fitting the measurement results with a 1:1 Langmuir binding model using the Biacore

human FcγRIIIa(F) [1] = biological target: T2, human FcγRIIIa(F) (human, UniProt P08637 17-208, limits assumed); assay: as above
T2 construct: also called hFcgRIIIa(F)
T2 sequence (P08637 other isoform, or with tags, fused parts or gaps limits assumed): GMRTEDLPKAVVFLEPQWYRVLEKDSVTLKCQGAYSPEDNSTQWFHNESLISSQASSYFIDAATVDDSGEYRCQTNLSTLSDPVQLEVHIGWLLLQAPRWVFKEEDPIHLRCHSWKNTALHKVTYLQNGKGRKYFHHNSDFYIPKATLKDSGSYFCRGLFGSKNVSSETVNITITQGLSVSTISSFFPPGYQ
Method: as §1

human FcγRIIIa(F) [2] = biological target: T3, human FcγRIIIa(F) (human, UniProt P08637 17-208, limits assumed); assay: SPR (Biacore), antibody captured on Protein L, human FcgR as analyte, pH 7.4, 25 C; amount normalised to captured antibody
T3 construct: also called hFcgRIIIa(F); allotype F158
T3 sequence (P08637 other isoform, or with tags, fused parts or gaps limits assumed): as above
Method: (§2) Binding activity between the antibodies and human FcγRIa, FcγRIIa(H), FcγRIIa(R), FcγRIIb and FcγRIIIa(F) (hereinafter referred to as human FcγRs) was evaluated using the Biacore T100 or T200 (GE Healthcare). The antibodies being tested were captured by Protein L (ACTIGEN) that was immobilized in suitable amounts on the CM4 Sensor Chip (GE Healthcare) by amine coupling. Next, the diluted human FcγRs and a running buffer used as a blank were injected to allow interaction with the antibodies captured on the sensor chip. A buffer consisting of 20 mmol/L ACES, 150 mmol/L NaCl and 0.05% (w/v) Tween 20 (pH 7.4) was used for the running buffer, and this buffer was also used to dilute the human FcγRs. 10 mmol/L glycine-HCl (pH 1.5) was used to regenerate the sensor chip. All measurements were carried out at 25° C.
(§3) Binding activity to human FcγRs can be represented by the relative binding activity to human FcγRs. Antibody was captured by Protein L, and the amount of change in a sensorgram before and after the antibody was captured was defined as X1. Next, human FcγRs were allowed to interact with the antibody, and the value obtained by subtracting binding activity of human FcγRs represented as the amount of change in a sensorgram before and after allowing the running buffer to interact with antibody captured by Protein L (ΔA2) from the value obtained by multiplying by 1500 the value obtained by dividing the binding activity of human FcγRs represented as the amount of change in a sensorgram before and after that interaction (ΔA1) by the captured amount (X) of each antibody, was divided by the captured amount of each antibody (X) followed by multiplying by 1500 to obtain the binding activity of the human FcγRs (Y) (Equation 2).

human FcγRIIb [3] = biological target: T4, human FcγRIIb (human, UniProt P31994 43-217, limits assumed); assay: as above
T4 construct: also called hFcgRIIb; FcγIIB
T4 sequence: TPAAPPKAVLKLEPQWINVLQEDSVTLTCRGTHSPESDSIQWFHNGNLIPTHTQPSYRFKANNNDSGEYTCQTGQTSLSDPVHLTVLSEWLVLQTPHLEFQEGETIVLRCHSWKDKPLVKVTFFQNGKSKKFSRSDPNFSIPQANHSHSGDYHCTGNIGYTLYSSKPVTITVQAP
Method: as §2, §3

human FcγRIIa type R [4] = biological target: T5, human FcγRIIa type R (human, UniProt P12318 36-217); assay: SPR KD of this variant's stronger FcγRIIa allotype binding divided by that of parent IL6R-B3/IL6R-L
T5 construct: also called FcγRIIaR; FcγRIIa(R)
T5 chain: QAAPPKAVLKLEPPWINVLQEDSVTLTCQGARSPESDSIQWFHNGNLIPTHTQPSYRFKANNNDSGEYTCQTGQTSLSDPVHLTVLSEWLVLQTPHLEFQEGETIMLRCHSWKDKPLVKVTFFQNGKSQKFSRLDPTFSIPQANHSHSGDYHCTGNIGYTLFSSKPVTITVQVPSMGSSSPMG
From the text: (§4) Furthermore, KD(IIaR)/KD(IIb) and KD(IIaH)/KD(IIb) in the table respectively represent the value obtained by dividing the KD value of each variant for FcγRIIaR by the KD value of each variant for FcγRIIb, and the value obtained by dividing the KD value of each variant for FcγRIIaH by the KD value of each variant for FcγRIIb.

human FcγRIIb [5] = biological target: T6, human FcγRIIb (human, UniProt P31994 43-217, limits assumed); assay: ratio of this variant's SPR KD for FcγRIIaH to its KD for FcγRIIb
T6 construct: also called FcγIIB; hFcgRIIb
T6 sequence: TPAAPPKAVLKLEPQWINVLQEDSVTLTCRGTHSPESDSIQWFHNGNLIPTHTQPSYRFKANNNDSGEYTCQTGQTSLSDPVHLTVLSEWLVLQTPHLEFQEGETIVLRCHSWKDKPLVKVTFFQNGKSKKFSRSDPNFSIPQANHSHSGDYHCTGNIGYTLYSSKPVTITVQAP
From the text: as §4

human FcγRIIb [6] = biological target: T6, human FcγRIIb; assay: ratio of this variant's SPR KD for FcγRIIaR to its KD for FcγRIIb
From the text: as §4

human FcγRIIa type R [7] = biological target: T5, human FcγRIIa type R; assay: SPR (Biacore), captured antibody, FcγR as analyte, 25 C
From the text: as §4

human FcγRIIb [8] = biological target: T6, human FcγRIIb; assay: SPR KD for FcγRIIb of parent IL6R-B3/IL6R-L divided by that of this variant
From the text: as §4

B1: IgG1-v2 (antibody)
heavy: not shown
light: DIQMTQSPSSLSASVGDRVTITCRASQDISSYLNWYQQKPGKAPKLLIYYTSRLHSGVPSRFSGSGSGTDFTFTISSLQPEDIATYYCQQGNTLPYTFGQGTKVEIK
notes: copies: 2 + 2
B1 was tested, and the “binding (RU)” value (human FcγRIIa(H)) was about 10 RU and the “binding (RU)” value (human FcγRIIIa(F) [1]) was about 5 RU.

B2: antibody containing VH3-IgG1-F1324 for the heavy chain and L(WT)-CK for the light chain (antibody)
heavy: QVQLQESGPGLVKPSETLSLTCAVSGHSISHDHAWSWVRQPPGEGLEWIGFISYSGITNYNPSLQGRVTISRDNSKNTLYLQMNSLRAEDTAVYYCARSLARTTAMDYWGEGTLVTVSSASTKGPSVFPLAPSSKSTSGGTAALGCLVKDYFPEPVTVSWNSGALTSGVHTFPAVLQSSGLYSLSSVVTVPSSSLGTQTYICNVNHKPSNTKVDKKVEPKSCDKTHTCPPCPAPEAAGGPSVFLFPPKPKDTLYISRTPEVTCVVVDVSHEDPEVKFNWYVDGVEVHNAKTKPREEQYNSTYRVVSVLTVLHQDWLNGKEYKCKVSNKALPAPIEKTISKAKGQPREPQVYTLPPSRDELTKNQVSLTCLVKGFYPSDIAVEWESNGQPENNYKTTPPVLDSDGSFFLYSKLTVDKSRWQQGNVFSCSVMHEALHYHVTQKSLSLSP
light: not shown
B2 was tested, and the “BINDING AMOUNT (RU)” value (human FcγRIIIa(F) [2]) was 5.83 RU and the “BINDING AMOUNT (RU)” value (human FcγRIIb [3]) was 3.85 RU.

B3: antibody containing VH3-IgG1-F1326 for the heavy chain and L(WT)-CK for the light chain (antibody)
heavy: QVQLQESGPGLVKPSETLSLTCAVSGHSISHDHAWSWVRQPPGEGLEWIGFISYSGITNYNPSLQGRVTISRDNSKNTLYLQMNSLRAEDTAVYYCARSLARTTAMDYWGEGTLVTVSSASTKGPSVFPLAPSSKSTSGGTAALGCLVKDYFPEPVTVSWNSGALTSGVHTFPAVLQSSGLYSLSSVVTVPSSSLGTQTYICNVNHKPSNTKVDKKVEPKSCDKTHTCPPCPAPEAAGGPSVFLFPPKPKDVLYISRTPEVTCVVVDVSHEDPEVKFNWYVDGVEVHNAKTKPREEQYNSTYRVVSVLQPLHADWLNGKEYKCKVSNKALPAPIEKTISKAKGQPREPQVYTLPPSRDELTKNQVSLTCLVKGFYPSDIAVEWESNGQPENNYKTTPPVLDSDGSFFLYSKLTVDKSRWQQGNVFSCSVMHEALHYHVTQKSLSLSP
light: not shown
With B3 the “BINDING AMOUNT (RU)” value (human FcγRIIIa(F) [2]) was 9.51 RU and the “BINDING AMOUNT (RU)” value (human FcγRIIb [3]) was 5.46 RU.

B4: IL6R-BP089/IL6R-L (antibody, human IgG1)
heavy: QVQLQESGPGLVKPSETLSLTCAVSGHSISHDHAWSWVRQPPGEGLEWIGFISYSGITNYNPSLQGRVTISRDNSKNTLYLQMNSLRAEDTAVYYCARSLARTTAMDYWGEGTLVTVSSASTKGPSVFPLAPSSKSTSGGTAALGCLVKDYFPEPVTVSWNSGALTSGVHTFPAVLQSSGLYSLSSVVTVPSSSLGTQTYICNVNHKPSNTKVDKKVEPKSCDKTHTCPPCPAPEYLGGDSVFLFPPKPKDTLMISRTPEVTCVVVDVSHEDPEVKFNWYVDGVEVHNAKTKPREEQYNSTYRVVSVLTVLHQDWLNGKEYKCKVSNAALPKPIEKTISKAKGQPREPQVYTLPPSRDELTKNQVSLTCLVKGFYPSDIAVEWESNGQPENNYKTTPPVLDSDGSFFLYSKLTVDKSRWQQGNVFSCSVMHEALHNHYTQESLSLSP
light: DIQMTQSPSSLSASVGDRVTITCRASQDISSYLNWYQQKPGKAPKLLIYYTSRLHSGVPSRFSGSGSGTDFTFTISSLQPEDIATYYCQQGNTLPYTFGQGTKVEIK
notes: copies: 2 + 2
In the case of B4, the “KD value for the stronger of the FcγRIIaR- and FcγRIIaH-binding activities of the variant/that of the parent polypeptide” value (human FcγRIIa type R [4]) is reported as 6.3, the “KD (IIaH)/KD (IIb)” value (human FcγRIIb [5]) is reported as 51.9 and the “KD (IIaR)/KD (IIb)” value (human FcγRIIb [6]) is reported as 16.6.

B5: IL6R-BP144/IL6R-L (antibody, human IgG1)
heavy: QVQLQESGPGLVKPSETLSLTCAVSGHSISHDHAWSWVRQPPGEGLEWIGFISYSGITNYNPSLQGRVTISRDNSKNTLYLQMNSLRAEDTAVYYCARSLARTTAMDYWGEGTLVTVSSASTKGPSVFPLAPSSKSTSGGTAALGCLVKDYFPEPVTVSWNSGALTSGVHTFPAVLQSSGLYSLSSVVTVPSSSLGTQTYICNVNHKPSNTKVDKKVEPKSCDKTHTCPPCPAPELLGDDSVFLFPPKPKDTLMISRTPEVTCVVVDVSHEDPEVKFNWYVDGVEVHNAKTKPREEQYNSTYRVVSVLTVLHQDWLNGKEYKCKVSNAALPAPIEKTISKAKGQPREPQVYTLPPSRDELTKNQVSLTCLVKGFYPSDIAVEWESNGQPENNYKTTPPVLDSDGSFFLYSKLTVDKSRWQQGNVFSCSVMHEALHNHYTQESLSLSP
light: DIQMTQSPSSLSASVGDRVTITCRASQDISSYLNWYQQKPGKAPKLLIYYTSRLHSGVPSRFSGSGSGTDFTFTISSLQPEDIATYYCQQGNTLPYTFGQGTKVEIK
notes: copies: 2 + 2
B5 was tested, and the Kd (human FcγRIIa type R [7]) was 2900 nM, the “KD value for the stronger of the FcγRIIaR- and FcγRIIaH-binding activities of the variant/that of the parent polypeptide” value (human FcγRIIa type R [4]) was 6.9 and the “KD (IIaH)/KD (IIb)” value (human FcγRIIb [5]) was 45.8. For the same binder, the “KD (IIaR)/KD (IIb)” value (human FcγRIIb [6]) was 8.7 and the “KD(IIb) of the parent polypeptide/KD(IIb) of the altered polypeptide” value (human FcγRIIb [8]) was 5.9.

From patent US20140105889A1 (published 2014)
